Experiment in all cases: cell-based or functional assay
For assay [1], the target named is human RXFP2 (human) (UniProt Q8WXD0).
Assay [2] deals with human RXFP3 (human) (UniProt Q9NSD7).
The target of assay [3] is human RXFP4 (human) (UniProt Q8TDU9).

The record followed here is US20190248863A1.

Sequence of human RXFP4 (human) (Q8TDU9 whole entry): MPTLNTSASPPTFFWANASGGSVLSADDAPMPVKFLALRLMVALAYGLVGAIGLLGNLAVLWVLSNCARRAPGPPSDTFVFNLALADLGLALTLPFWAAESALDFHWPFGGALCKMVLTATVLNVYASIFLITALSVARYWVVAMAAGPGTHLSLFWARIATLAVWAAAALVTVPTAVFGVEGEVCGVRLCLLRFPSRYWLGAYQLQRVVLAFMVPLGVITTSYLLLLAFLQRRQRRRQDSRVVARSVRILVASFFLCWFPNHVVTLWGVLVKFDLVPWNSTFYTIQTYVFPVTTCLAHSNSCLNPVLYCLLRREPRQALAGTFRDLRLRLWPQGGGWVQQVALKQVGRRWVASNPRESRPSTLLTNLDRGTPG
Sequence of human RXFP2 (human) (Q8WXD0 whole entry): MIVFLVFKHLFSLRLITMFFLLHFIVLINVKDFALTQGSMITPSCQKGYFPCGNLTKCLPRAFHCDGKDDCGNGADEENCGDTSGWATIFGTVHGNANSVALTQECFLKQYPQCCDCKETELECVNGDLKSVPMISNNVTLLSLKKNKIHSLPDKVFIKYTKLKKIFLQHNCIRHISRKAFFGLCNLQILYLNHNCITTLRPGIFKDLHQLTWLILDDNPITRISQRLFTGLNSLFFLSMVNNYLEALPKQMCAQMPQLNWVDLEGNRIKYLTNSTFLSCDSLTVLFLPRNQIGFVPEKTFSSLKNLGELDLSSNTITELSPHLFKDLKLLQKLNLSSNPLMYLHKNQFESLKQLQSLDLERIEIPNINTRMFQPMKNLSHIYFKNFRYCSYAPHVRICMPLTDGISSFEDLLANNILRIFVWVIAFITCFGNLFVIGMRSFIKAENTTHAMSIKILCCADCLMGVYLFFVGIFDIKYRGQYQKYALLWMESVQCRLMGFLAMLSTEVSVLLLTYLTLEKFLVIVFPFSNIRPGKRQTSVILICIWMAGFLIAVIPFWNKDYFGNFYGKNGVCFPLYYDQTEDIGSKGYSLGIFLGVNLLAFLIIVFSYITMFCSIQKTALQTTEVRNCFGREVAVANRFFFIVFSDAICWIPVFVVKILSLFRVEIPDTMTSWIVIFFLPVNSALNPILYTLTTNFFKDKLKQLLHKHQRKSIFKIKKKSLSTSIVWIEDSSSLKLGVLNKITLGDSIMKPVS
Sequence of human RXFP3 (human) (Q9NSD7 whole entry): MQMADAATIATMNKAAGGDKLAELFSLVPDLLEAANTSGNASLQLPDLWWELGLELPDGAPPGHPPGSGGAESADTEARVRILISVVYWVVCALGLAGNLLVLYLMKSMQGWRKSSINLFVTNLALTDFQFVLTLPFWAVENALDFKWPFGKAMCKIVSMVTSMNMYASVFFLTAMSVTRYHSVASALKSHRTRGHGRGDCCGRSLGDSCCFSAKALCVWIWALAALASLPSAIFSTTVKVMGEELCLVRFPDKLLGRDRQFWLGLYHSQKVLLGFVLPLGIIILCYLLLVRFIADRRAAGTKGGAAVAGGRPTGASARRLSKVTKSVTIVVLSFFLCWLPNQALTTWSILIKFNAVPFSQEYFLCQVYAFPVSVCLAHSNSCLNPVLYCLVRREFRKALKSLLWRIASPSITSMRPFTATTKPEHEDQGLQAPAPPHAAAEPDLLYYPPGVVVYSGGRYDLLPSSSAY

With “insulin like 3 protein-INSL3 (from UniProt P51460 106-131; P51460 21-55) (ligand)”, in assay [1], the cAMP Assay EC50 (nM), human RXFP2/CHO-K1 cells came out at 0.46 nM.
As for “recombinant human relaxin 3 (from UniProt Q8WXF3 119-142; Q8WXF3 26-52) (ligand)”, in assay [2], the cAMP Assay EC50 (nM), inhibition of forskolin-induced cAMP, human RXFP3/CHO-K1 cells turned out to be 0.6 nM. In addition, in assay [3], the cAMP Assay EC50 (nM), inhibition of forskolin-induced cAMP, human RXFP4/CHO-K1 cells worked out at 2.8 nM and the maximal inhibition of forskolin-induced cAMP (partial agonist activity), human RXFP4/CHO-K1 cells came out at 40%.
